The values below come from US20200385439A1.

Ends that are not written are not given here.

Common to all, as to assay: cell-based or functional assay
Assay [1] concerns the target human Y1 receptor (human) (UniProt P25929).
The target of assay [2] is mouse Y2 receptor (mouse) (UniProt P97295).
For assay [3], the target named is rhesus monkey Y2 receptor (rhesus monkey) (UniProt Q9GK74).
The target in the next assay is CRHR1.
A further assay concerns the target CRHR2.
Assay [4] deals with cynomolgus monkey GLP1 receptor (cynomolgus monkey) (UniProt F8V479).
Assay [5] concerns the target cynomolgus monkey glucagon receptor (cynomolgus monkey).
For assay [6], the target named is mouse GLP1 receptor (mouse) (UniProt O35659).
mouse GLP1 receptor (mouse), sequence (O35659 22-463): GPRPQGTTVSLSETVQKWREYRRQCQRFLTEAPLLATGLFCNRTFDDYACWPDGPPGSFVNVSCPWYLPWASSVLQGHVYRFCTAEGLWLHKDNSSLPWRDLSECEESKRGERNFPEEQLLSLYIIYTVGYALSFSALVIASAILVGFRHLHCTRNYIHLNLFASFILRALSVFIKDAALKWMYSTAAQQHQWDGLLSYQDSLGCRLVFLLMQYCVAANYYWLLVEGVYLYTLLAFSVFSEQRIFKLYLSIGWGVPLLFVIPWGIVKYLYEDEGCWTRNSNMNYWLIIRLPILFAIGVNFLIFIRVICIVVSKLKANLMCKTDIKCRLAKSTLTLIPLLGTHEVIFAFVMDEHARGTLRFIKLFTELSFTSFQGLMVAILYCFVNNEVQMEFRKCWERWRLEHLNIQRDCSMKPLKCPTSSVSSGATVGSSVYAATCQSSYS
Assay [7] has as its target mouse glucagon receptor (mouse) (UniProt Q61606).
In assay [8] the target is rat glucagon receptor (rat) (UniProt P30082).
rat glucagon receptor (rat), sequence (P30082 27-485): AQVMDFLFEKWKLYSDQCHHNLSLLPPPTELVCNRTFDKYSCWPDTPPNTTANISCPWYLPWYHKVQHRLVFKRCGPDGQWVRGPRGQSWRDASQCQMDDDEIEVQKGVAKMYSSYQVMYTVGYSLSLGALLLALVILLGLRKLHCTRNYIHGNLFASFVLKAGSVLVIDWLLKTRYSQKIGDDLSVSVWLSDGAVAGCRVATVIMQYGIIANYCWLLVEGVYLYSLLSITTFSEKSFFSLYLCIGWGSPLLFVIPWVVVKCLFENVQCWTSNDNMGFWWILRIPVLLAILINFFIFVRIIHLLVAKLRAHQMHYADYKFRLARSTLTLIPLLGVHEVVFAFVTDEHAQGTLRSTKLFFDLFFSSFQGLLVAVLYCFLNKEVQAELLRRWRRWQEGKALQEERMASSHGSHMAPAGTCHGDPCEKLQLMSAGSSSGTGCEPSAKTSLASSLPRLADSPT
Assay [9] concerns the target human glucagon receptor (human) (UniProt P47871).
The target in the next assay is T1, CALCR.
T1 sequence (P30988 1-474, species assumed, looked up): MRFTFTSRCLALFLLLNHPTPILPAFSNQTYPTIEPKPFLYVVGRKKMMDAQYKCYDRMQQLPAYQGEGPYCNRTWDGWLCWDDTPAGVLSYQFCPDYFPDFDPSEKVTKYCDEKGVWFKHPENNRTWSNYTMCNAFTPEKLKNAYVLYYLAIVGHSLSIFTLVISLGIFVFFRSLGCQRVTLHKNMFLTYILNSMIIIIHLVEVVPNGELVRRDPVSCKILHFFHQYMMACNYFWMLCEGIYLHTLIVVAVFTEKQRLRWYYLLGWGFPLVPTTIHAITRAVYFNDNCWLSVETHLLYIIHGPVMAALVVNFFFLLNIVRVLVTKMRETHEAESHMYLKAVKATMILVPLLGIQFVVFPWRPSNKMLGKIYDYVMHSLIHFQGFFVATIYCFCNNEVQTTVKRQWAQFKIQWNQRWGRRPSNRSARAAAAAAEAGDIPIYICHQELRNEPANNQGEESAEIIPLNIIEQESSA

Dulaglutide (Fc fusion), sequence (chain): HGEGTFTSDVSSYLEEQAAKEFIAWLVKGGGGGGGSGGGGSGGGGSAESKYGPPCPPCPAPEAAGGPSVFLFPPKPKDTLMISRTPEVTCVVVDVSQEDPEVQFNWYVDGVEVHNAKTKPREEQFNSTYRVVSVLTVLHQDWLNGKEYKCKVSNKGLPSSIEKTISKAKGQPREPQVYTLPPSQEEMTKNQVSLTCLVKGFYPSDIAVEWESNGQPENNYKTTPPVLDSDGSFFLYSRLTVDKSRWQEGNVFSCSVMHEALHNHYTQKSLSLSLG
mouse glucagon receptor (mouse), sequence (Q61606 27-485): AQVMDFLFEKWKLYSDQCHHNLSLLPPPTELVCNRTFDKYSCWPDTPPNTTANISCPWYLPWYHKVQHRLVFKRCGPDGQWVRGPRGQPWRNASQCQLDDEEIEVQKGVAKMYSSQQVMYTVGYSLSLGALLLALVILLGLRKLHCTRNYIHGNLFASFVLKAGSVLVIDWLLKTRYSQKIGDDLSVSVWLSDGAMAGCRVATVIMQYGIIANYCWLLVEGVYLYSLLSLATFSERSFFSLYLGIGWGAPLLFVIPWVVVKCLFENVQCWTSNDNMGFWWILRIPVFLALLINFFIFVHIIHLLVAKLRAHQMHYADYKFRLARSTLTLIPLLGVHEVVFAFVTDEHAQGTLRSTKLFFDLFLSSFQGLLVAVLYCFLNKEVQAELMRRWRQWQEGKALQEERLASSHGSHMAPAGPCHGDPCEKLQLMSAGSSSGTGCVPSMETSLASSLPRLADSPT
rhesus monkey Y2 receptor (rhesus monkey), sequence (Q9GK74 whole entry): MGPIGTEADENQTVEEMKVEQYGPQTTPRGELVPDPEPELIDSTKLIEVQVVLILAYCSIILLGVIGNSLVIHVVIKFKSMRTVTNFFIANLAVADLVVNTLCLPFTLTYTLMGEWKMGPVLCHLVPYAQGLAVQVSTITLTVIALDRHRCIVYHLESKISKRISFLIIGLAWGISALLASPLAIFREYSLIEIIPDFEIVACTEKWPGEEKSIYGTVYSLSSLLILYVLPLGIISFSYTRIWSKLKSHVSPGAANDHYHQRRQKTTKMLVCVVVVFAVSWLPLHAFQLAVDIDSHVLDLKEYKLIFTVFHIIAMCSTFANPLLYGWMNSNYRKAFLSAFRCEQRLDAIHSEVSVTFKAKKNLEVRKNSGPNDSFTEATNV
mouse Y2 receptor (mouse), sequence (P97295 whole entry): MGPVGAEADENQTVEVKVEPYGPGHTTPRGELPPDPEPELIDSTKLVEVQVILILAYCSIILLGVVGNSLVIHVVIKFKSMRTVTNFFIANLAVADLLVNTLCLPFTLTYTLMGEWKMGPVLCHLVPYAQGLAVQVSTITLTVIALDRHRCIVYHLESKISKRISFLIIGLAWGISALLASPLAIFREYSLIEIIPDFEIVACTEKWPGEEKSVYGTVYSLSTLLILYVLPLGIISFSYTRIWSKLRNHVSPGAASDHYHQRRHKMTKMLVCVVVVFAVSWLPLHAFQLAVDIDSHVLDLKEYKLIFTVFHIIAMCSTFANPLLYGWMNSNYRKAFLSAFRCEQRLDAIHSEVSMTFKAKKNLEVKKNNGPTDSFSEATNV
human Y1 receptor (human), sequence (P25929 whole entry): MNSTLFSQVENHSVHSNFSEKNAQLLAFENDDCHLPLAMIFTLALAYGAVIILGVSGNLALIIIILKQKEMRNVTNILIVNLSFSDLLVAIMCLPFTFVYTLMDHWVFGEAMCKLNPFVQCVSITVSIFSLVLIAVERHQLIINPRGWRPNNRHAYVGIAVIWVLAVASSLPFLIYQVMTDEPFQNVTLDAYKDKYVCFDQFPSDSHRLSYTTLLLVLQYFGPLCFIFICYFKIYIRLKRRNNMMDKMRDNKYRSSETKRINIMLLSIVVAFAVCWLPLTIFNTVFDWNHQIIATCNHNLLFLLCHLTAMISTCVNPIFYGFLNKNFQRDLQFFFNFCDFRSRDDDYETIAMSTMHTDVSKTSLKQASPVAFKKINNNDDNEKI
human glucagon receptor (human), sequence (P47871 26-477): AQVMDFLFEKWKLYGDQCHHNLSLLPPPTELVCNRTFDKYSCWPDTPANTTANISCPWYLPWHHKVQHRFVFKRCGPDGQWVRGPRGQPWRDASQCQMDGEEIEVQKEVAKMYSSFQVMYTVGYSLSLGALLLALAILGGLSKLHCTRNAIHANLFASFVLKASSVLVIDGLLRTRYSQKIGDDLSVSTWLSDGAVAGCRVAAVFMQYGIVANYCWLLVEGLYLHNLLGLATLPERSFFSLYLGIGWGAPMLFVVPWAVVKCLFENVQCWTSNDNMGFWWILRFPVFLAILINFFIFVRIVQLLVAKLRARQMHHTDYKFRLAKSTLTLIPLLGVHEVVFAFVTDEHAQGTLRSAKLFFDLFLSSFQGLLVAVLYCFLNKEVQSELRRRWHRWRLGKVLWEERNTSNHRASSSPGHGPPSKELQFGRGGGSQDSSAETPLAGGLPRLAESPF

For the molecule “PYY3-36 (from UniProt P10082 31-64) (peptide)”, the figures for the EC50, cAMP assay (LANCE) on receptor-expressing cells in [1], in [2] and in assay [3] were 66.4 nM, 0.03 nM and 0.06 nM, respectively.
With Sauvagine (peptide; unit assumed), the values for the Max response, cAMP assay with CRHR1 and in the assay with CRHR2 were 106% and 107%, respectively.
For Sauvagine (peptide), the RC50, cAMP assay with CRHR1 turned out to be 0.000308 µM; with CRHR2, 0.0034 µM.
In the case of “Ser-8 GLP1 (from UniProt P01275 98-127) (peptide)”, the EC50, receptor cAMP assay is 0.08 nM in assay [4]; above 100 nM in assay [5]; 0.06 nM in assay [6]; above 100 nM in assay [7]; above 100 nM in [8].
Regarding Dulaglutide (Fc fusion), the EC50, receptor cAMP assay is above 100 nM in assay [5]; above 100 nM in [9]; 0.035 nM in [6]; above 100 nM in assay [7]; above 100 nM in [8].
As to CGNLSTCMLGTYTQDFNKFHTFPQTAIGVGAP (peptide, UniProt P01258 85-116, looked up, species assumed, ends and bridges not checked; cysteine pairing not given here) [Calcitonin], in the assay with CALCR, the Max response, cAMP assay is 101% and the RC50, cAMP assay is 0.000776 µM.
